The series is described as follows: soluble on expression in E. coli; label from the status in PepcDB or PDB records.
As to “MSLKMTNNTVLITGGSAGIGLELAKRLLELGNEVIICGRSEARLAEAKQQLPNIHTKQCDVADRSQREALYEWALKEYPNLNVLVNNAGIQKEIDFKKGTEELFVDGDEIELNFQAPVHLSALFTPHLMKQPEAAIVQVTSGLAFNPLAVYPVYCATKAALHSFSLTLRHHVRDTSVEVIEMAPPMVDTGLNQKSRDKQGLTYRGISSEEYVQYFLDGLKEGKQEITNERVEGLRDATRADYDRLFEQMNTQEGHHHHHH”, the “soluble on expression in E. coli” value was “soluble”.

In the case of “MSLKNNIYGNVPCFLNSKNLNQTNTLDTDVIVYGAPFEGESTWGDYTGVELGPKQIRVCSARYSQYLPELNHIDISEHLTMGDVGDVPFVAHDNKQSYDNISDFAKKLWDSGKFLVGFGGEHGVTYPILKALTETGKKVGIIHLDAHYDNMPDYEGEPYARNTPFMRLYETDGIRNESIIHTGIHGPRNKPETGRFAQEAGAVTLTINDIRAAKDLKTYAHEIYAQASKDVDVVYLTICSDVLDFAFNPGGPVDGNGLSSYELLTMIHEFGKLGLGGMDYVEVYPMMDANQNSAHFVSTAVLYVLAGHVAYLNQTEGHHHHHH”, the “soluble on expression in E. coli” value was “soluble”.

For “MSLKNTPPGFPSHSSATLAFALAIAAGGAQAAGFVEDAKGTLTLRNFFINRDFKGDNATRSKAEEWTQNFLLDLKSGYTEGPLGLGLDVLGLYSVKLDGGKGTGGTQLLPLDHDGKPADRFGRLAVAGKLKLSETELRAGEWALVLPILRSDDGRSLPQTFRGSMLTSKEIENLTLYAGHITGNSPRDDGSMEEMTLFGTSPYTSDRTSDDFDFGGLEYSFNGKRTLVGVWYARLKDIYKQRYIQLQHSQPLGGDWTLGANIGYFDGEDDGEALEGHLDNKALSGLFSLRTGAHTFYLGLQRISGDSKWLRVNGTSGGTLANDSYNSSYDNARERSWQLRYDYNFAALGMPGLTFMTRYISGKNIHVGAVDDGEEWGRESEVAYVVQSGAAKNLTLRWRNTTMRRDYGSDNQFNEQRLIVQYPLSLFEGHHHHHH”, the “soluble on expression in E. coli” value was “soluble”.

Take “MSLKQIIDNVEVYILTGPKEKRPHWVSHFIVPTANELLVKIKTKQGLEGFGIATNYSDINPVIEVFKTDFLDNFIGMDATCPEVIYEKIFNLTSQKLSFEKKWGKEPLIRISAAIDIACWDLIGKASGFPLYKLFGGYRDKVPCYVTCAYYRDGKDNKELKDEIEMLVGQGHQGFKGKVGGLSLREDLERMNIIRDVIGDEKSLMIDVNRAWDLKTASEAVNLLKPINPFWLEEPVRWADDRRELKLLSQKTEIPISGGESELTIYGCRSMLEEQAIQILQFDCTMFGGFTAGKKLSALCEVNHVDIAPHHDCFIHAHIVAGSPSGLIVESFTDPERDPLQAELFTNPPKIENGWLYLNEEPGLGLNLSNDALAKFGNKILEGHHHHHH”: the “soluble on expression in E. coli” value is listed as “soluble”.

As for “MSLKQKSSGKSVIITGVTQGLGRAMVDRFHELGWNIYGCGRSKDKIEELKKYYGNTHVFQIIDVSDSQQVSDWANYILHRNRAPDLLINNASIVNKNAPLWKVTAEEFENVMNVNVNGVVNVIRAFVPAMVARKAGMIINMSSSWGREGEAELAPYCASKFAIEGITKSLALELPYSMAVVALDPGGSISTPMLYSCAPQYVNESPTPEMWSQHAIPYILKITIDKNGASLTCPECTEGHHHHHH”, the “soluble on expression in E. coli” value is “soluble”.

In the case of “MSLKQLDMTPQPDLSQKTGTGPVLTRLPVWRPALPPCNHACPAGENIQAWLSLAEAGRFEAAWQTLIEENPLPAIHGRVCYHPCESACNRAQVDDAVSIHAIERFLGDEALARGWQPAPPAPASGKKVLVIGAGPSGLSCAWHLNRLGHQVEIREAGPLAGGMLRFGIPAYRLPRDVLDREVARIVAAGVTLTLNHKVEDVLRERDEGGFDAVFMAIGAHLAKRVDIPAREAGKILDAVSFLEQASLAEEQGLPPPKLGRRVAIYGGGNTAMDAARTARRLGVEEAMIIYRRDREHMPAHAFEADEAEEEGIKINWLRSIRQLDNTNIEVEVMALDAEGKPVPTGKFETLEADSLILALGQEVDLSVLESIPGVRVNKEGVVQVGENLMTDVPGLFAGGDMVPSERTVTIATGHGKKAARHMDAWLRGRHYQKMVSYPLVGPEQLQLWFQTHAPASSQPVKPAWARDDFGEIIGGLDETAARYEAARCYSCGNCFECDGCYGSCPEQAIEKLGPGKGYQVDATRCTGCGACHDQCPCHAIELRQPEESEGHHHHHH”, the “soluble on expression in E. coli” value is reported as “soluble”.

As to “MSLKQYSVKELTKLYKFLVIKANETRKLTLQDKNGIVKSNTDYNGVINRAQLGYDNILDILPSVSGSYSKPKYIISSNLMCYTGITGIYFPFTGEANVNIAIPDLYIPCTVEHEMAHQRGFASEDEANFIAYLTSIKHPNIDFNYSGYILALNYTASALSKVDYNAYVDISAGISDSVRRDLKNESEFWQKYEGKINEISNEFNNSYLKANGVTEGTQSYGKMVDLLLTYYELYPYNEGHHHHHH”, the “soluble on expression in E. coli” value is “soluble”.

In the case of “MSLKRQLGKDVVQAARERIHILFDEFEHIYVSFSGGKDSGVLLHLVIEEARKRNRLPVDVLIVDLEAQYQHTIHFVERMVNKKEVNAFWVCLPLSLRNSVSQFQPKWICWDPDKKEDWIRALPLHASVINEEEYFSFYSFGMEFETFVSAFGEWYSEKKQCPCACLVAIRADESLNRYKTIKNQRKKRLKQYGWTTKASDVFYKAYLIYDWHVTDIWIANGRFNWDYNHVYDLMHKAGLSLAQQRLCQPFGDDQRKGLWLYQILEPQTWQKLVVRVEGCNFGARYSKKQGHILGYYKFDLPEGYTYRSYSKYLLNSMPPHLADHYRKRLFKFLNWWRKNGKEQGILSIPDFADKKLEAKKKVPSWRRICKVLIKNDYWCRGLSFGQSKKLTEHYIDLYEGYFRKEGHHHHHH”, the “soluble on expression in E. coli” value is recorded as “soluble”.

For the sequence “MSLKSADSATQQYLKEKHEEYLSLQHGLQRREETLLATVNQIVVNQHAFLLHQAALAPLLLRDVAKALQVNESTVSRTIKGKHLQTDLGIFAFKDFFSKRTQAVSSSAYHSVDQLKFTMMQLIQSENKMCPASDNLLVKWLYEKGFKVARRTVTKYRNELGLPAASARKSREGHHHHHH”, the “soluble on expression in E. coli” value is “soluble”.

Take “MSLKSESKGGSNALVVSTFGLSEDIVKKDIIAPFEKENEAKVTLEVGNSADRFTKLKNNPNAGIDVIELAQANAAQGGKDGLFEKITEKEVPNLSQLTPGAKEVFESGAGVPIAVNSIGIVYNKEKLGKEIKNWDDLWSADLKGKISVPDVATTAGPLMLYVASEHAGQDITKDNGKAAFEAMKELKPNVVKTYSKSSDLANMFQSGEIEAAVVADFAVDIIQGAAENVTYIVPESGTYANYNTVNIPKKAQNKETAFKFVNARISEESQKAKAISLNEGPTNQQVTLSEKEAKNKTYGAIAERAKTVDFNFINSQLADWIDQWNRTMNQEGHHHHHH”: the “soluble on expression in E. coli” value is “soluble”.

As for “MSLKTGRFDQAQADAFAERLLSVLNDAALTLMISIGHRTGLFDVMDKLDFASSEVIAEAAGCNERYVREWLNALVVGGIVDYDAHTKAYQLPAEHASFLTRKSSPQNMAVVAQFIPVLAYVENGIVDAFKHGGGVPYEAYHRFHEVMAEESGQTILSSLTDKILPMVHGLVDKLNQGIQVLDIGCGYGRALILMAKTYPQSQFTGYDLCDETIAHAVHSAKKNKIQNIHFEKMDLSVWDEQEKYDLITSFDVIHDQAKPAQVLSNVFKALKPHGIFLMQDIKTSSDVAGNVHHPLGALIYTISCMHCMTVSLSQNGLGLGAAWGEELAEKMLVEAGFGKIEKHYLEHDIMNTYYVMRKEGHHHHHH”, the “soluble on expression in E. coli” value is “soluble”.

“MSLKVFVTGATGFIGASIARELLKDGCHVRVLARPGSDRRNLDGLDVEVCEGDLCSPESLDRGVKGCEVLYHAAADYRLWTRNPAAMYAANVEGTRHVLDAALRHGVSRVVYTSSVGTLGNPGDGTPGTEATPVTFADMVGDYKKSKFLAEREAETFLARGLPLVIVNPSTPVGPHDVKPTPTGKIIVDFLNRAMPAYLDTGLNIIDVEDCAQGHILAAQHGRIGEKYILGHENLTLRQIFSLLETVTGLAAPKVRLPYLPILAAAYANEALSRITGREPLIPLAGVQMARKFMYFDSSKAVKELGLPQRPAVEALGRAVEWFRANGYVREGHHHHHH”: the “soluble on expression in E. coli” value is “soluble”.

In the case of “MSLKVLAAMSGGVDSSVAAARMVDAGHEVVGVHMALSTAPGTLRTGSRGCCSKEDAADARRVADVLGIPFYVWDFAEKFKEDVINDFVSSYARGETPNPCVRCNQQIKFAALSARAVALGFDTVATGHYARLSGGRLRRAVDRDKDQSYVLAVLTAQQLRHAAFPIGDTPKRQIRAEAARRGLAVANKPDSHDICFIPSGNTKAFLGERIGVRRGVVVDADGVVLASHDGVHGFTIGQRRGLGIAGPGPNGRPRYVTAIDADTATVHVGDVTDLDVQTLTGRAPVFTAGAAPSGPVDCVVQVRAHGETVSAVAELIGDALFVQLHAPLRGVARGQTLVLYRPDPAGDEVLGSATIAGASGLSTGGNEGHHHHHH”, the “soluble on expression in E. coli” value was “soluble”.

On to “MSLKVLIKTDLVLGAPKTLRDVYIGIDEGQIKVISKEKPEDYDYAEYVIGGKNRVVAPGFVTTHSFLYLYPFRYRVFSGKANAFQLMSTLTPNDIYYFSLMGAYHLLKTGVTTVVTSGPNLDMIARAISEVGLRPVLAVGVDCPDSKEDWEREFTTLYNRWSSKNENRVILRLCSNEYSKEVFELSQQYDFPVLLERFVSLENISGNPINVIGLGGGARKDLDIIKQKGFHLASTPSYEVSQFPLSQYKPSISLDLSPTFDIRHEVSTSITRLILTPEEALNAMTIWGLLQLKYNDRGVLENGKVADLVIFEVKEPPTFPLDYESPYESIVFNLSTPETVLVSGEAILDGGVPLNIGIKHIEKAIERLEDIDKKVTRPARYMEKDEGHHHHHH”, for which the “soluble on expression in E. coli” value was “not soluble”.

Consider “MSLKVTMEFIANQLGITKNTVSLALRNMPGVSEKTRKEILRTAEKYGYIYKKSNSKNSKSNSRTGSICLMLSNDTKNSVGFFSFIQYGVESEGKRNGLNTILYCFDDNKEFQPPVCIRDGIVSGIITLGRISRKTVSSIISLNLPLVIVDDFFDDIKASYVLTDNLSGGYTATEYLIKSGHRSIGFFGDIFASPSFFDRYMGYLKAHVQYNLPVNSSFSIIDKNMAVLLHEGVDKVVDELKKIPQLPTAMFCCNDVEAIALYKAFSVMGISVPDDISIIGFDDIESSTSVSPELTTMHINKEAMGERAVKKLIEKMNGQESMDEKIVLPVTLIERQSVKREGHHHHHH”, for which the “soluble on expression in E. coli” value is recorded as “soluble”.

As to “MSLLDFSAHALPYASQRSPVHARRGMVATSQPQAAQVGLEILRRGGNAIDAAIATAAALTVVEPTGCGIGGDAFALVWTRGRLHGLDASGRAPGLLDRERVRAAGHERMPLYGWTPVTVPGCPAAWGELSRRFGKLPFEQLLRPAIELARDGFPVSPVIARLWQSGLDKFRAALPQRPELRAWFDEFLIDGRAPRAGEVFRQPGQADTLDELARSQCESFYRGELARAIVGHAECSGGYLRAEDLAGYQAKWVEPISLNYRGYDVWEIPPSGQGLIALMTLNILKGFEFGERDCARTWHRQLEAMKLAYVDGLHYISQPQSMRVSVEELLHEDYAASRRALIGERALDPSPGQPRPGGTVYLACGDEEGNLVSFIQSNYHGFGSGVVVPGTGIALQNRGAEFSLDPDHVNCLEPGKQTFHTIIPGFLSKDGVPLGPFGVMGAYMQPQGHVQMVMNLVDFGLNPQAALDAPRWQWLGGLRVGIEHAAPRALAAELAQRGHQVEIAYDSTSYGRGQIVLRDPASGVLCGGTEPRTDSQIAVWEGHHHHHH”, the “soluble on expression in E. coli” value is “not soluble”.

The record behind these values is the DeepSol protein solubility set.
